# Reference: patent US20240279288A1, “APPLICATION OF PLANT JAZ PROTEINS AND DERIVED POLYPEPTIDES IN PREVENTION AND TREATMENT OF HUMAN AND ANIMAL TUMORS” (ANYANG INSTITUTE OF SINO-COTTON INDUSTRY INNOVATION, priority 2021, published 2024)
# B1: GhJAZ1: cotton JAZ1 protein, gene number Gh_A05G0260, sequence SEQ ID No. 4; prokaryotically expressed with His tag, about 30 KD (protein)
# chain: MSSCSESTAMKPARSPEKPSFAQTCNLLSQYLKEKGSFGDLSLGMTCNVEANGTPVVPPPTMNLFPLNDKSDDVCGRNGGNPKNLTSMDLFPQQAGLASKDDSPNKLEPQTAPMTIFYGGQVIVFNDFPANKAKEIMLLASNSSSQSNNSFNPIPFTSSIARSPIESSIGVPPTSKPVHPAQRAVPGDLPIARRASLHRFLEKRKDRITAKAPYQINNSAAAPSLSGDNKSWLGLAAQSP
# modifications: His tag
# notes: prokaryotically expressed with His tag, about 30 KD
# Biological target: c-Myc (Homo sapiens, UniProt P01106)
# Sequence (P01106 whole entry): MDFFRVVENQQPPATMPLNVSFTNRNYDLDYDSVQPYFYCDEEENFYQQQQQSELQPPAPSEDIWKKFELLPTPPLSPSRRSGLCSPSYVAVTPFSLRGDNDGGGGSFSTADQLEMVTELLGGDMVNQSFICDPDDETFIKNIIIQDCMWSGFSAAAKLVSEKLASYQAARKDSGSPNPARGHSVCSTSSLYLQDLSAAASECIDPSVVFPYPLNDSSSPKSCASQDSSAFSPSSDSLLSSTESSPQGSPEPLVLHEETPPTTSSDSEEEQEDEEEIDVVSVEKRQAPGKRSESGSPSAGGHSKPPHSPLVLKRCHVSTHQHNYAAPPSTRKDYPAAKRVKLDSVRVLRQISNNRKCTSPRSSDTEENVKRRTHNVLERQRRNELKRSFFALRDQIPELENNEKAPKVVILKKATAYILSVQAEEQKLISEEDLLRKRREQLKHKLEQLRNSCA
# Assay: Bimolecular fluorescence complementary experiment with c-Myc
# Assay type: binding
# Set-up: with the full length of c-Myc and NMYC, respectively; expressed in transfected cells; host or cells: yeast Y2HGold
# Conditions: bimolecular fluorescence complementation, YFP signal in the nucleus of tobacco
# Source text: GhJAZ1 (SEQ ID No. 39) was subcloned into pUC-SPYNE vector (Song, Yun, et al. “BIN2 negatively regulates plant defense against Verticillium dahliae in Arabidopsis and cotton.” Plant Biotechnology Journal (2021)) between the BamHI and XbaiI cleavage sites by the bimolecular fluorescence complementary experiment to construct pUC-SPYNE-GhJAZ1. c-Myc (NCBI accession number: NM_002467.6) was subcloned into pUC-SPYCE vector (Song, Yun, et al. “BIN2 negatively regulates plant defense against Verticillium dahliae in Arabidopsis and cotton.” Plant Biotechnology Journal (2021)) between BamHI and XbaiI cleavage sites to construct pUC-SPYCE-c-Myc. […] Testing of inhibitory effect of GhJAZ1 protein on tumor cells
molecule,measurement,value
B1,interaction with c-Myc,interaction
